± gives the uncertainty stated by the source.
Assay: self-splicing fitness, log relative to wild type (ln ratio); higher = more splicing; Tetrahymena group I intron in knt gene, E. coli kanamycin selection, DiMSum; sequences stand for … in CUCUCU…GGAGGGAAAAGUUAUCAGGCAUGCACCUGGUAGCUAGUCUUUAAACCAAUAGAUUGCAUCGGUUUAAAAGGCAAGACCGUCAAAUUGCGGGAAAGGGGUCAACAGCCGUUCAGUACCAAGUCUCAGGGGAAACUUUGAGAUGGCCUUGCAAAGGGUAUGGUAAUAAGCUGACGGACAUGGUCCUAACCACGCAGCCAAGUCCUAAGUCAACAGAUCUUCUGUUGAUAUGGAUGCAGUUCACAGACUAAAUGUCGGUCGGGGAAGAUGUAUUCUUCUCAUAAGAUAUAGUCGGACCUCUCCUUAAUGGGAGCUAGCGGAUGAAGUGAUGCAACACUGGAGCCGCUGGGAACUAAUUUGUAUGCGAAAGUAUAUUGAUUAGUUUUGGAGUACUCGUGGUCG
Outline: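 Pooled colonies went to amplicon sequencing on an Illumina HiSeq 2500 after six replicate transformations. The plates were LB agar with 100 μg/mL carbenicillin, 50 μM IPTG and 0.2% rhamnose, with or without 25 μg/mL kanamycin, incubated overnight at 37°C or 30°C. The E. coli BL21(DE3) library had all eight P1ex-region intron nucleotides randomised, the intron placed in the knt kanamycin-resistance gene on pET-22b(+). DiMSum fitness is the error-weighted combination of replicate fold changes, kanamycin against none, normalised to wild type.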

| Sequence | self-splicing fitness (ln) (30 °C) | self-splicing fitness (ln) (37 °C) |
| --- | --- | --- |
| AUGAAGCAAUAUUACGGGUG | -1.81 ± 0.088 | -0.453 ± 0.098 |
| GGAUAGCAAUAUUACGGGAU | -3.03 ± 0.27 | -2.39 ± 0.21 |
| CGUGAGCAAUAUUACGGCGU | -2.44 ± 0.18 | -1.32 ± 0.17 |
| CCACAGCAAUAUUACGCACC | -2.62 ± 0.28 | -1.71 ± 0.28 |
| GGCCAGCAAUAUUACGCUGC | – | -1.67 ± 0.22 |
| GAUCAGCAAUAUUACGGGAG | -1.64 ± 0.068 | -0.581 ± 0.086 |
| AUGUAGCAAUAUUACGGGAA | -2.34 ± 0.38 | -3.07 ± 0.47 |
| UUGUAGCAAUAUUACGGUUG | -2.38 ± 0.12 | -0.9 ± 0.12 |
| AGUAAGCAAUAUUACGUCGC | – | -1.65 ± 0.31 |
| AUUCAGCAAUAUUACGACCA | -0.206 ± 0.26 | 0.501 ± 0.29 |
| UCGCAGCAAUAUUACGUGUG | -2.24 ± 0.074 | -2.33 ± 0.12 |
| GUCUAGCAAUAUUACGUCGA | -2.12 ± 0.14 | -0.957 ± 0.13 |
| GCGAAGCAAUAUUACGUUAU | -2.2 ± 0.1 | -1.86 ± 0.11 |
| GCCAAGCAAUAUUACGUGGC | -3.84 ± 0.2 | -3.04 ± 0.28 |
| UGCGAGCAAUAUUACGCAGC | – | -1.49 ± 0.37 |
| UGUCAGCAAUAUUACGGCGU | -1.95 ± 0.15 | -0.728 ± 0.13 |
| CCCUAGCAAUAUUACGCCUA | – | -2.48 ± 0.34 |
| CGUAAGCAAUAUUACGCUCA | -1.2 ± 0.2 | -0.106 ± 0.18 |
| GUACAGCAAUAUUACGAAAU | -2.34 ± 0.12 | -0.906 ± 0.11 |
| UUCUAGCAAUAUUACGCCGA | -0.96 ± 0.23 | 0.163 ± 0.25 |
| CAAUAGCAAUAUUACGCGUU | -2.98 ± 0.09 | -2.42 ± 0.1 |
| CGUCAGCAAUAUUACGUCUC | -2.87 ± 0.24 | -0.999 ± 0.14 |
| GAUAAGCAAUAUUACGAUCG | -0.76 ± 0.12 | -0.691 ± 0.14 |
| CCCCAGCAAUAUUACGGACA | -3.52 ± 0.14 | -2.53 ± 0.14 |
| CCCGAGCAAUAUUACGUUUA | -3.42 ± 0.17 | -2.75 ± 0.16 |
